{
  "source": "paper PMC8978939",
  "about": "“VHL-P138R and VHL-L163R Novel Variants: Mechanisms of VHL Pathogenicity Involving HIF-Dependent and HIF-Independent Actions” (Frontiers in Endocrinology, 2022)",
  "binders": {"B1": {"name": "Elongin B (natural protein, human (endogenous in 786-0), UniProt Q15370 1-118, looked up)", "chain": "MDVFLMIRRHKTTIFTDAKESSTVFELKRIVEGILKRPPDEQRLYKDDQLLDDGKTLGECGFTSQTARPQAPATVGLAFRADDTFEALCIEPFSSPPELPDVMKPQDSGSSANEQAVQ", "notes": "also called EloB; source: endogenous, 786-0 RCC cell lysate"}},
  "key": {"VHL-L163R-Venus": {"biological_target": "T1, VHL-L163R-Venus (human, UniProt P40337 1-213, L163R)", "T1 construct": "von Hippel-Lindau protein (pVHL), human, patient variant L163R (CTC to CGC) made by site-directed mutagenesis of VHL-WT-Venus-Retro; Variant found in patients with VHL disease (type 2C); also called L163R VHL-Venus; L163R pVHL", "T1 sequence (P40337 whole entry L163R)": "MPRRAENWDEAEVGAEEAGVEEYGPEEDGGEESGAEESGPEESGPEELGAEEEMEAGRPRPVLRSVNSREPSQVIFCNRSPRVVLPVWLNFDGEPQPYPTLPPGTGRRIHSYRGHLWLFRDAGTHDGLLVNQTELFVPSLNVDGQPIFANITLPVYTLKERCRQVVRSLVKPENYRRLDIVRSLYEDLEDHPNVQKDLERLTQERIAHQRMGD", "experiment": "co-IP; GFP-Trap_A kit on 1 mg protein from 786-0 cell lines stably expressing VHL-Venus (WT, P138R, L163R) or GFP; Western blot for Elongin B and Elongin C; band ratios Elongin/pVHL normalised to WT set as 1", "conditions": "partners not purified"}, "VHL-P138R-Venus": {"biological_target": "T2, VHL-P138R-Venus (human, UniProt P40337 1-213, P138R)", "T2 construct": "von Hippel-Lindau protein (pVHL), human, patient variant P138R (CCA to CGA) made by site-directed mutagenesis of VHL-WT-Venus-Retro; Variant found in patients with VHL disease (type 2B); also called P138R VHL-Venus; P138R pVHL", "T2 sequence (P40337 whole entry P138R)": "as the sequence (P40337 whole entry L163R) above, with P138R, R163L counted along it", "experiment": "co-IP; GFP-Trap_A kit on 1 mg protein from 786-0 cell lines stably expressing VHL-Venus (WT, P138R, L163R) or GFP; Western blot for Elongin B and Elongin C; band ratios Elongin/pVHL normalised to WT set as 1", "conditions": "partners not purified"}},
  "data": [
    {"binder": "B1", "values": [
      {"measurement": "ratio Elongin B/pVHL, normalised to WT pVHL set as 1", "setting": "VHL-L163R-Venus", "result": 0.25},
      {"measurement": "ratio Elongin B/pVHL, normalised to WT pVHL set as 1", "setting": "VHL-P138R-Venus", "result": "~0.6"}
    ]}
  ]
}
